Here are results for one molecule from paper PMC6796863, “Structural insight into human N6amt1–Trm112 complex functioning as a protein methyltransferase” (Cell Discovery, 2019).

The assay has as its target T1, human N6amt1–Trm112 complex (human, UniProt Q9Y5N5 1-214; Q9UI30 1-125).
T1 construct: human N6amt1 (HemK2), full length, 214 amino acids; human Trm112, full length; SAM co-purifies with the complex; before the ITC titration the complex was incubated with SAH at a molar ratio of 1:2; also called the protein complex; source: E. coli BL21(DE3), co-expressed from pET-Duet, purified (Ni-NTA, gel filtration)
T1 sequence (looked up) 1: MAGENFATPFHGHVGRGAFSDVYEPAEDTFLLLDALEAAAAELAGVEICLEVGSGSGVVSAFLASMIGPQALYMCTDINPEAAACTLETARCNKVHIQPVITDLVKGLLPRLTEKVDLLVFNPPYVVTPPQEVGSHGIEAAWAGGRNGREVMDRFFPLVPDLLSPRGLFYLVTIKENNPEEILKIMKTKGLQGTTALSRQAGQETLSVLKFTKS
T1 sequence (looked up) 2: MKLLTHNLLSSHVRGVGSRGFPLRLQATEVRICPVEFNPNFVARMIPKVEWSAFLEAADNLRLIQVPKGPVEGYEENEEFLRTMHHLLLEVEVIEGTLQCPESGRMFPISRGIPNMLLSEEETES
In words: ITC; 2 mM peptide injected into 0.1 mM N6amt1–Trm112 in the cell, 20 °C; complex incubated beforehand with SAH at a molar ratio of 1:2; single binding site model. The note with it: both partners purified.

B1: Gln185-centered 15-residue peptide of human eRF1 (GGQ peptide) (peptide)
peptide: KKHGRGGQSALRFAR
notes: human eRF1, 15-residue peptide centered at Gln185; also called 15-residue GGQ peptide of eRF1
Usually Kd stands for the free concentration of one partner at which half of the binding sites on the other are occupied at equilibrium, for simple one-to-one binding. As for B1, the Kd turned out to be 490 ± 150 µM.
